Measurements taken from IntAct's records for PubMed 25503564.

B1: Centrosomal protein of 68 kDa (Homo sapiens), Q76N32 (parent)
chain: MALGEEKAEAEASEDTKAQSYGRGSCRERELDIPGPMSGEQPPRLEAEGGLISPVWGAEGIPAPTCWIGTDPGGPSRAHQPQASDANREPVAERSEPALSGLPPATMGSGDLLLSGESQVEKTKLSSSEEFPQTLSLPRTTTICSGHDADTEDDPSLADLPQALDLSQQPHSSGLSCLSQWKSVLSPGSAAQPSSCSISASSTGSSLQGHQERAEPRGGSLAKVSSSLEPVVPQEPSSVVGLGPRPQWSPQPVFSGGDASGLGRRRLSFQAEYWACVLPDSLPPSPDRHSPLWNPNKEYEDLLDYTYPLRPGPQLPKHLDSRVPADPVLQDSGVDLDSFSVSPASTLKSPTNVSPNCPPAEATALPFSGPREPSLKQWPSRVPQKQGGMGLASWSQLASTPRAPGSRDARWERREPALRGAKDRLTIGKHLDMGSPQLRTRDRGWPSPRPEREKRTSQSARRPTCTESRWKSEEEVESDDEYLALPARLTQVSSLVSYLGSISTLVTLPTGDIKGQSPLEVSDSDGPASFPSSSSQSQLPPGAALQGSGDPEGQNPCFLRSFVRAHDSAGEGSLGSSQALGVSSGLLKTRPSLPARLDRWPFSDPDVEGQLPRKGGEQGKESLVQCVKTFCCQLEELICWLYNVADVTDHGTAARSNLTSLKSSLQLYRQFKKDIDEHQSLTESVLQKGEILLQCLLENTPVLEDVLGRIAKQSGELESHADRLYDSILASLDMLAGCTLIPDKKPMAAMEHPCEGV

Variants of: B1
Details: with fbw1a_human BTRC

| effect of a mutation on the interaction | Variant |
| --- | --- |
| decreasing interaction strength | D337A |
| disrupting interaction strength | S332A |
| disrupting interaction strength | S332A;D337A |
